Assays:
[1] = target: ectodomain of human syndecan-4 (natural isoform 2 of SDC-4) (human); experiment: SEC-MALS
[2] = target: ectodomain of human syndecan-4 (natural isoform 2 of SDC-4) (human); experiment: ion mobility mass spectrometry

stoichiometry N [1]: 2
stoichiometry N [2]: 2
Substance: ectodomain of human syndecan-4 (natural isoform 2 of SDC-4) (domain or fragment)

— article PMC8416954
